Each block holds one molecule with its values, some of them ahead of it. Positions of bridges follow the written chain, without caps; N, C: chain ends. No end group written: not given here.
Columns and labels:
[1] = target: adrenomedullin receptors in the lungs of dogs (dog); assay: cell-based or functional assay
[2] = target: adrenomedullin receptors in the lungs of dogs (dog); assay: competition: displacement of iodine-labelled hAM from dog lungs
[3] = target: T1, adrenomedullin receptors in the lungs of dogs (dog, UniProt A0A8I3NWR4 23-462; A0A8I3MWA8 233-365); assay: as above
T1 construct: also called AM1 (CRLR+RAMP2) receptor
T1 sequence (chain, as listed by the source, chain 1 of 2): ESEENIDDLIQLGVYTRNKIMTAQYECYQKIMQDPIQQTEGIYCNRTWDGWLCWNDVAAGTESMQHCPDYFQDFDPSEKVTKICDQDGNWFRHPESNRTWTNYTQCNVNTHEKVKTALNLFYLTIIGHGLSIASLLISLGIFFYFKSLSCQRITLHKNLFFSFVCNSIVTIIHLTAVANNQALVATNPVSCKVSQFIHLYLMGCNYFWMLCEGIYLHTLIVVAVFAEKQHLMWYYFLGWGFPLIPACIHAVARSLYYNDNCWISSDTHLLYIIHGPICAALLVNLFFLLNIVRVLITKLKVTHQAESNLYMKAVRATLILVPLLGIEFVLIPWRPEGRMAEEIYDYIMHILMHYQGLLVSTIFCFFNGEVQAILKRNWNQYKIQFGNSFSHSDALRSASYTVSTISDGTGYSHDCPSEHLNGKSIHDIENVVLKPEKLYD
T1 sequence (chain, as listed by the source, chain 2 of 2): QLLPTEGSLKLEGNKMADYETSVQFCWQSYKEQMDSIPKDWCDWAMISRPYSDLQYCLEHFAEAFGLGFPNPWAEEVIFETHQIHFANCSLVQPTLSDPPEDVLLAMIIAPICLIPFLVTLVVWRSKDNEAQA

Chain of adrenomedullin receptors in the lungs of dogs (dog) (chain, as listed by the source, chain 1 of 2): as the sequence (chain, as listed by the source, chain 1 of 2) above
Chain of adrenomedullin receptors in the lungs of dogs (dog) (chain, as listed by the source, chain 2 of 2): as the sequence (chain, as listed by the source, chain 2 of 2) above

Molecule: 125I-rAM(1-50) (from UniProt P43145 94-143) (peptide)
mean single-pass pulmonary extraction of 125I-rAM(1-50), dogs in vivo, baseline [1]: 36.4%
mean tracer 125I-rAM(1-50) extraction during a single pulmonary transit time, dog in vivo, one typical experiment, control [1]: 30%

Molecule: hCGRP (from UniProt P06881 83-119) (peptide)
IC50 [2]: 440 nM

B2: hAM(22-52) (peptide)
peptide: TVQKLAHQIYQFTDKDKDNVAPRSKISPQGY-NH2
notes: also called C-terminal AM fragment
IC50 [3]: 810 nM

B3: hAM2(16-47) (peptide, UniProt Q7Z4H4 116-147, looked up)
peptide: QVQNLSHRLWQLMGPAGRQDSAPVDPSSPHSY
modifications: ends and bridges not checked
notes: range 16-47; Numbering 16-47 is that of the mature AM2 peptide, not of the precursor entry
IC50 [3]: 980 nM

B4: linear human adrenomedullin hAM(1-52) (peptide)
peptide: YRQSMNNFQGLRSFGCRFGTCTVQKLAHQIYQFTDKDKDNVAPRSKISPQGY-NH2
modifications: cysteine pairing not given here
notes: also called hAM linear; linear hAM
IC50 [3]: 7.1 nM

More lines, now with the values ahead:

single-pass pulmonary extraction of 125I-rAM(1-50) after administration of CGRP (100 nmol i.v.) [1]: 40.6%
single-pass pulmonary extraction of 125I-rAM(1-50), control before CGRP [1]: 44.6%
Molecule: CGRP (Phoenix Pharmaceuticals) (peptide)

mean extraction of 125I-rAM(1-50) in the same dog after injection of unlabelled rAM(1-50) [1]: 12%
mean single-pass pulmonary extraction of 125I-rAM(1-50) after administration of unlabelled rAM(1-50) (100 nmol i.v.) [1]: 21.9%
Molecule: unlabelled rAM(1-50) (from UniProt P43145 94-143) (peptide)

IC50 [3]: 0.041 nM
B1: N-terminal acetylated human adrenomedullin (peptide)
peptide: Ac-YRQSMNNFQGLRSFGCRFGTCTVQKLAHQIYQFTDKDKDNVAPRSKISPQGY-NH2
modifications: ends and bridges not checked
notes: also called N-Ac hAM; N-terminal acetylated AM

IC50 [3]: 0.055 nM
B5: human adrenomedullin hAM(1-52), cyclic (peptide)
peptide: YRQSMNNFQGLRSFGCRFGTCTVQKLAHQIYQFTDKDKDNVAPRSKISPQGY-NH2
modifications: disulfide 16-21
notes: also called hAM (cyclic); cyclic hAM

IC50 [3]: 480 nM
B6: hAM2 (peptide, UniProt Q7Z4H4 101-147, looked up)
peptide: TQAQLLRVGCVLGTCQVQNLSHRLWQLMGPAGRQDSAPVDPSSPHSY

IC50 [3]: 34 nM
B7: hAM(13-52) (peptide)
peptide: SFGCRFGTCTVQKLAHQIYQFTDKDKDNVAPRSKISPQGY-NH2
modifications: ends and bridges not checked

Reference: patent US20090028790A1 (INSTITUT DE CARDIOLOGIE DE MONTREAL, published 2009)
